The first assay deals with USP22 zf-UBP domain, tag cleaved (for FP) (human) (UniProt Q9UPT9). Kind of assay: fluorescence polarisation; saturation or displacement not stated for this experiment; 50 mM phosphate buffer pH 7.4, room temperature.
Conditions: not given
(In general: Fluorescence polarisation rises when a labelled molecule tumbles more slowly, as on binding a larger partner.)
Usually Kd stands for the constant that tells how readily two partners part at equilibrium. “ATXN7_(84-105) peptide (from UniProt O15265 84-105)” displayed a Kd of 58 µM.

In another assay the target is FITC-APBA2 327-338 peptide (human). In words: fluorescence polarisation; saturation: serial dilution of the protein domain, 10 nM FITC-labelled peptide; 50 mM phosphate buffer pH 7.4 with DTT; room temperature; three technical replicates; quadratic fit.
Conditions: not given
The substance “USP20 zf-UBP domain (from UniProt Q9Y2K6 1-914) (domain or fragment)” registered a Kd of 2.91 µM.

“USP20 zf-UBP domain E55K/D59R (from UniProt Q9Y2K6 1-914) (domain or fragment)” had a dissociation constant Kd of 388 µM. The same measure, in the same setting: the figure for “USP33 zf-UBP domain (from UniProt Q8TEY7 1-942) (domain or fragment)” is 8.69 µM.

The target of a further assay is FITC-ORAI1 48-63 peptide (human). The description is as above.
Conditions: not given
“USP11 DUSP-UBL tandem domain (from UniProt P51784 1-963) (domain or fragment)” showed a dissociation constant Kd of 294 µM.

A further assay deals with FITC-ATXN7L1 36-57 peptide (human). The description is as above.
Conditions: not given
In turn, “USP22 zf-UBP domain (from UniProt Q9UPT9 1-525) (domain or fragment)” had a dissociation constant Kd of 1 µM.

A further assay concerns the target FITC-HIF1A 568-581 peptide (human). Described as above.
Conditions: not given
Regarding “USP33 DUSP2 domain N835A (from UniProt Q8TEY7 1-942) (domain or fragment)”, the Kd worked out at 353 µM. On the same count and under the same terms, the figure for “USP33 DUSP2 domain K863E/K865E (from UniProt Q8TEY7 1-942) (domain or fragment)” is 319 µM.

Substance “USP33 DUSP2 domain (from UniProt Q8TEY7 1-942) (domain or fragment)” returned an equilibrium dissociation constant (Kd) of 31.3 µM.

For the next assay, the target named is FITC-GPR137B 348-362 peptide (human). The assay is described as above.
Conditions: not given
Substance “USP20 DUSP2 domain (from UniProt Q9Y2K6 1-914) (domain or fragment)” had a Kd of 5.14 µM. Still for that read-out and setting: the figure for “USP20 DUSP2 domain N805A (from UniProt Q9Y2K6 1-914) (domain or fragment)” is 140 µM; for “USP20 DUSP2 domain K833E/K835E (from UniProt Q9Y2K6 1-914) (domain or fragment)” it is 293 µM.

A further assay deals with CYLD CAP-Gly2 domain, GST-tagged (UniProt Q9NQC7). Kind of assay: peptide SPOT array alanine scanning. To be noted: parent: est. 0; read off a plot.
For “FBXO46_(168-183) peptide A183 (replacement residue not printed)”, the other: signal change (%) was -55%.

Take FBXO46_(168-183) peptide L169A: the other: signal change (%) is -70%. The same measure, in the same setting: the figure for FBXO46_(168-183) peptide L170A is -70%; for FBXO46_(168-183) peptide E180A it is -75%. Regarding FBXO46_(168-183) peptide Q181A, the other: signal change (%) is 0%.

On to “FBXO46_(168-183) peptide A173 (replacement residue not printed)”, for which the other: signal change (%) is -75%.

On to FBXO46_(168-183) peptide D168A, for which the other: signal change (%) amounted to 150%. On the same count and under the same terms, with FBXO46_(168-183) peptide V179A the figure was -80%. On the same count and under the same terms, with FBXO46_(168-183) peptide M175A the figure was -90%; with FBXO46_(168-183) peptide V176A, -85%. Same read-out and setting: the figure for FBXO46_(168-183) peptide L178A is -65%.

Consider FBXO46_(168-183) peptide S171A, for which the other: signal change (%) is -70%. Same read-out and setting: the figure for FBXO46_(168-183) peptide R182A is -85%; for FBXO46_(168-183) peptide E174A it is -80%. Same read-out and setting: with “FBXO46_(168-183) peptide A177 (replacement residue not printed)” the figure was -80%. For the substance FBXO46_(168-183) peptide V172A, the other: signal change (%) was -75%.

The target in the next assay is CYLD CAP-Gly1 domain, GST-tagged (UniProt Q9NQC7). In words: peptide SPOT array alanine scanning. To be noted: parent: est. 0; read off a plot.
Consider “RBM25_(558-573) peptide (from UniProt P49756) A560 (replacement residue not printed)”, for which the other: signal change (%) is -25%. The same measure, in the same setting: with “RBM25_(558-573) peptide (from UniProt P49756) A569 (replacement residue not printed)” the figure was -60%.

The next assay addresses USP33 DUSP2 domain, tag cleaved (for FP) (human) (UniProt Q8TEY7). Kind of assay: fluorescence polarisation; displacement: unlabeled peptide titrated into the domain (at two-fold the KD of the FITC-labeled peptide) with 10 nM FITC-labeled peptide; 50 mM phosphate buffer pH 7.4, DTT, room temperature; estimated KD.
Conditions: not given
Take “HIF1A_(564-581) peptide D571K (from UniProt Q16665 564-581)”: the dissociation constant Kd is 145 µM.

Turning to HIF1A peptide hydroxylated at P564, the Kd is 7 µM. On the same count and under the same terms, with “HIF1A_(564-581) peptide F572A (from UniProt Q16665 564-581)” the figure was over 900 µM. On the same count and under the same terms, with “HIF1A_(564-581) peptide, wild type, unlabeled (from UniProt Q16665 564-581)” the figure was 1.5 µM; with “HIF1A_(564-581) peptide L574A (from UniProt Q16665 564-581)”, over 200 µM.

Another assay deals with USP33 zf-UBP domain, tag cleaved (for FP) (human) (UniProt Q8TEY7). The description is as above.
Conditions: not given
On to “APBA2_(327-338) peptide N334A (from UniProt Q99767 327-338)”, for which the Kd was 112 µM. Still for that read-out and setting: the figure for “APBA2_(327-338) peptide R330A (from UniProt Q99767 327-338)” is over 500 µM; for “APBA2_(327-338) peptide, wild type, unlabeled” it is under 8 µM.

Another assay concerns the target USP20 DUSP2 domain, tag cleaved (for FP) (human). Described as above.
Conditions: not given
In the case of “HIF1A_(564-581) peptide D571K (from UniProt Q16665 564-581)”, the Kd was 85 µM. Same read-out and setting: the figure for HIF1A peptide hydroxylated at P564 is 26 µM. Regarding “HIF1A_(564-581) peptide, wild type, unlabeled (from UniProt Q16665 564-581)”, the Kd was 19 µM. On the same count and under the same terms, with “HIF1A_(564-581) peptide L574A (from UniProt Q16665 564-581)” the figure was 89 µM.

In a further assay the target is USP20 DUSP2 domain (human) (UniProt Q9Y2K6). In words: fluorescence polarisation; displacement: serial dilution of the unlabelled peptide against the domain (at two-fold the KD of the FITC-labelled peptide) in complex with 10 nM FITC-labelled peptide; 50 mM phosphate buffer pH 7.4; room temperature; three technical replicates; sigmoidal dose-response fit.
Conditions: not given
With HIF1A 564-581 F572A peptide, the dissociation constant (Kd) is 589 µM.

The target of another assay is USP33 DUSP2 domain (human) (UniProt Q8TEY7). The assay is described as above.
Conditions: not given
HIF1A 564-581 F572A peptide gave an equilibrium dissociation constant (Kd) of 930 µM.

(Values after article PMC13376213, “Systematic discovery of motif-based interactions of the auxiliary domains of USP family deubiquitinases” (Nature Communications, 2026).)
